Laboratory results as given in US5565354 (Sandoz Ltd., dated 1996).

Columns and labels:
[1] = target: HBsAg in serum from a hepatitis B positive patient (hepatitis B virus)
[2] = target: HBsAg of control HBsAg-positive serum (hepatitis B virus); assay: sandwich RIA, solid-adsorbed and 125I-labelled ZM1-2; the control itself
[3] = target: serum-derived variant HBsAg of Patient #2 (hepatitis B virus); assay: sandwich RIA, solid-adsorbed and 125I-labelled ZM1-2, patient serum HBsAg
[4] = target: serum-derived variant HBsAg, sample 'Patient #3 (264)' (hepatitis B virus); assay: as above
[5] = target: serum-derived variant HBsAg, sample 'Patient #4 (251)' (hepatitis B virus); assay: as above
[6] = target: T1, HBsAg subtype ayw (hepatitis B virus, UniProt P03138); assay: solid phase RIA, 125I-labelled antibody on solid adsorbed HBsAg ayw, room temperature
[7] = target: T1, HBsAg subtype ayw; assay: inhibition ELISA, soluble HBsAg ayw pre-incubated with antibody, HBsAg-coated well, 37 C
[8] = target: hepatitis B surface antigen (HBsAg), preparation and subtype not stated (hepatitis B virus); assay: AUSAB radioimmunoassay (Abbott), compared on a weight basis
[9] = target: HBsAg of control HBsAg-positive serum (hepatitis B virus); assay: sandwich RIA, PE1-1 solid-adsorbed and ZM1-2 125I-labelled; the control itself
[10] = target: serum-derived variant HBsAg of Patient #2 (hepatitis B virus); assay: sandwich RIA, PE1-1 solid-adsorbed and ZM1-2 125I-labelled, patient serum HBsAg
[11] = target: serum-derived variant HBsAg, sample 'Patient #3 (264)' (hepatitis B virus); assay: as above
[12] = target: serum-derived variant HBsAg, sample 'Patient #4 (251)' (hepatitis B virus); assay: as above

B1: human monoclonal antibody ZM1-2 (antibody, V domains shown)
VH: QVQLQESGPGLVKAAETLSLTCTVSRGSFSDYFWNWFRQPAGKRLEWLGRVYTSGSVDYNPSLKSRVTVSVDTSKKQFSLRLSSVTVADTAVYYCARGLSGFDYWGQGALVTVSP
VL: DIQMTQSPSSVSASVGDRVTVTCRASQGISSWLAWYQQKPGKAPKLLIHAASSLQSGVPSRFIGSGSGTDFTLTITSLQAEDFATYYCQQADSLPFTFGGGTKVDFKR
- IC50 [1]: 0.076 mg/L
- relative reactivity (relative to control) [2]: 1
- relative reactivity (relative to control) [3]: 0.233
- relative reactivity (relative to control) [4]: 0.179
- relative reactivity (relative to control) [5]: 0.01
- Ka [6]: 1.5e+09 M⁻¹
- Ka [7]: ~7e+08 M⁻¹

B2: human monoclonal antibody PE1-1 (antibody, V domains shown)
VH: QVQLVESGGGVVQPGRSLRLSCAASGFTFSRYGMHWVRQAPGKGLEWVAVISYDGSNKWYADSVKGRFTISRDNSKNTLFLQMHSLRAADTGVYYCAKDQLYFGSQSPGHYWVQGTLVTVSS
VL: QSQLTQPPSVSVAPGQTARITCGGDNIGSKSVNWFQQKPGQAPVLVVYDDNERPSGISERFSGSNSGNTATLTISRVEAGDEADYYCQVWDSSSDHVVFGGGTKLTVL
- potency relative to the Bureau of Biologics reference hepatitis B immune globin [8]: 435 times
- potency relative to the commercial hepatitis B immune globulin preparations [8]: > 200 times
- relative reactivity (relative to control) [9]: 1
- relative reactivity (relative to control) [10]: 0.07
- relative reactivity (relative to control) [11]: 0.173
- relative reactivity (relative to control) [12]: 0.024
- Ka [6]: 3.6e+09 M⁻¹
- Ka [7]: ~2e+09 M⁻¹

B3: human monoclonal antibody ZM1-1 (antibody, V domains shown)
VH: EVQLVESGGGLVQPGGSLRLSCAASGFTFSRYDMYWVRQATGKGLEWVSAIGPTGDTYYADSVKGRFTISRENAKNSLYLTMNGLRAGDTAVYYCARDLELWGQGTLVTVSS
VL: DVVVTQSPLSLPVTLGQPASISCRSSLSLVDSDGNTYLNWFLQRPGQSPRRLIYQLSSRDSGVPDRFSGSGSGTDFTLKISRVEAEDVGVYYCMQGTHWPITFGQGTRLEIKR
- Ka [6]: 5e+09 M⁻¹
- Ka [7]: ~1e+08 M⁻¹
